Laboratory results from the nanobody polyreactivity screen of Harvey et al. (2022).

test: yeast display, Sf9 membrane polyspecificity reagent, FACS + sequencing; frameworks hold sequencing errors
How it was run: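 Synthetic nanobody libraries on Saccharomyces cerevisiae BJ5465 were galactose-induced for 36–48 hours, stained 1 hour at 4 °C with 10% biotinylated, detergent-solubilized Sf9 membrane reagent and enriched on streptavidin microbeads. FACS then separated cells into low and high (top ~1%) gates by anti-HA (expression) and streptavidin (reagent binding) fluorescence. Genes were colony-PCR amplified, MiSeq 2 × 250 sequenced and CDR-length filtered. A clone's polyreactivity label is that of its gate of origin.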

Sequence	polyreactivity (PSR sort gate)
QVQLVESGGGLVQAGGSLRLSSSACGSTFYKNAMGWDRQAPGKERELVAGISRRGGRTYYADSLKGRFTISRDNANNTVYLQMNSLKPVDTADYYCNTGHEEDEYDYWGQGTQVTVSS	low polyreactivity
QVQLVESGGGLVQAGGSLRLSSTASGSTIVAYAMGWYRQAPGKERELVAAITSSGGRTYYADSVKGRFTISRDNAKNSVYLQMNSLKPEDTAVYYCAAVTHGRYDWGQGTQVTVSS	high polyreactivity
QVQLVESGGGLVQAGGSLRLSWAASGFIFAYYAMGWYTPAPGKERELVAAISKRGGSTYYADSVKGRFTISRDNAKNTVYLQMNSLKPEDTAVYYCAADGHGGYGYWGQGTQVTVSS	high polyreactivity
QVQLVESGGGLVQAGGSLRLSWAASGFIFVSNAMGWYRQAPGKERELVAAITSGDNTKYADSVKGRFTISRDNAKNTVYLQMNSLKPEDTAVYYCAVTNRYQGAGYYWGQGTQVTVSS	low polyreactivity
QVQLVESGGGLVQAGGSLRLSWAASGFTFRRNAMGWYRQAPGKEREFVAAITRSGGSTYYADSVKGRFTISRDNAKNTVYVHMNSLKPEDTAVYYCAKERPTDRYPSDEYWGQGTQVTVSS	high polyreactivity
QVQLVESGGGLVQAGGSLRLSWAASGITFATKAMGWYRQAPGKERELVAGITSGGSTYYADSVKGRFTISRDNAKNTVYLQMNSLQPEDTAVYYCANRYHYWYGTGYDYWGQGTQVTVSS	low polyreactivity
QVQLVESGGGLVQAGGSLRLSWAASGITFSRNAMGWYRQAPGKESELVATITSGGSTNYADSVKGRFTISRDHAKNTVYLQMNSLKPEDTAVYYCNAVWNNFISGRSYDYWGQGTQVTVSS	low polyreactivity
QVQLVESGGGLVQAGGSLRLSWAASGLIFVYNDMGWYRQAPGKEMELVAAIRWSSGRTYYADSVKGRFTISRDNAKNTVYLQMNSLKPEDTAVYYCAAKGVGPERGGYDYWGQGTQVTVSS	high polyreactivity
QVQLVESGGGLVQAGGSLRLSWAASGRILSANAMGWYRQAPGKERELVAAITYSGDNTYYADSVKGRFTISRDNAKNTVDVQMNSLKPEDTAVYYCAAVRYYAYLSSWRYDYWGQGTQVTVSS	low polyreactivity
QVQLVESGGGLVQAGGSLRLSWAASGRTLWYYTMGWYRQAPGKERELLAGITVSGGSTYYADSVKGRFTISRDNAKNTVYLQMNSLKPEDTAVYYCADGYYSTWKQASRYRYYYWGQGTQVTVSS	high polyreactivity
QVQLVESGGGLVQAGGSLRLSWAASGSIFGNAMGWYRQAPGKEREFVAAISSSGSSTYYADSVKGRFTISRDNAKNTVYLQMNSLKPEDTAVYYCAKRRRSAAPKYDYWGQGTHVTVSS	high polyreactivity
QVQLVESGGGLVQAGGSLRLSWAASGSIFKYYAMGWYRQAPGKDRELVADISRSGGRTYYADSVKGRFTISRDNAKNTVFLQMNSLKPEDTAVYYCAKRYSRGSQDDYWGQGTQVTVSS	high polyreactivity
QVQLVESGGGLVQAGGSLRLSWAASGSIFRSYAMGWYRQAPGKEREFVAAIPNSSGRTYYADSVKGRFTISRDNAKNTVYLQMNSLKPEDTAVYYCAARLPRTYQGGKLYRLQYSWGQGTQVTVSS	high polyreactivity
QVQLVESGGGLVQAGGSLRLSWAASGSIFVHNTMGWYRQAPGKERELVAAITRSVGRTYFADSVKGRFTISRDNAKNTVYLQMTSLQPADTAVYYCAKPASKGYYWGQGTQVTVSS	high polyreactivity
QVQLVESGGGLVQAGGSLRLSWAASGSTFDSNGMGRYRQAPGKERELVATITSRGASTNYSDSVKGRFTISRDNAKNTVYLEMNSLKPEDTAVYYCNREVPWWLYKYVGHDYWGQGTQVTVSS	low polyreactivity
QVQLVESGGGLVQAGGSLRLSWAASGSTFDYYAMGWYRQAPGKERELVAAIRWSDGSTYYADSVKGRFTISRDNAKNTVYLQMNSLKPEDTAVYYCAADALYWIGRMDYWGQGTQVTVSS	low polyreactivity
QVQLVESGGGLVQAGGSLRLSWAASGSTFPYYAMGWYRQAPGKERELVAAISWSDANTYYADSVKGRFTISRDNAKNTVYLQMNSLKPEDTAVYYCAAEPYDRYGPYTGYGLNYWGQGTQVTVSS	low polyreactivity
QVQLVESGGGLVQAGGSLRLSWAASGSTFYPYAMGWYRPAPGKERELVAAISSSSSTNYADSVKGRFTISRDNAKNTVYLQMNSLKPEDTAVYYCAVTRVIESKQIRYDYWGQGTQVTVSS	low polyreactivity
QVQLVESGGGLVQAGGSLRLSWDASGYTFSRNAMGWYRQAPGKERELVAGISWSGSRTYYADSVKGRFTISRDNAKNTVYLQMNSLKPEDTAVYYCAVLAYGPRNARGGTAGYDYWGQGTEVTVSS	high polyreactivity
QVQLVESGGGLVQAGGSLRLSYAASGSTFHLYAMGWYRQAPGKERELVASINSGGSTYYADSVKGRFTISRDNAKNTVYLQMNSLKPEDTAVYYCAADAYSWWGRWERYPYTTMYYWGQGTQVTVSS	low polyreactivity
QVQLVESGGGLVQAGGSLRLTCAASGAIFEYYSMSWYIQAPGKERELVAAISSGGPTYYADSVKGRFTISRDNAKNTVYLQMNSLKPEDTAVYYCNADLWYPDYEYWGQGTQVNVSS	low polyreactivity
QVQLVESGGGLVQAGGSLRLTCAASGFIFNRYAMGWYRQAPGKERELDADLTGGSTYYAVSVKGRFTISRDNAKKSVYLQLNSVTPEDTAVDYCAADVLPISTLLFRGPGFDSWGQGTQVTFSS	low polyreactivity
QVQLVESGGGLVQAGGSLRLTCAASGFIFPRYAMGWYRQAPGKERELVAAISGNGVRTYYADSVKGRFTISRDNAKNTVYLQMNSLNPEDTAVYYCNTGADVRYRYYYWGQGTQVTVSS	high polyreactivity
QVQLVESGGGLVQAGGSLRLTCAASGFIFYKYAMGWYRQAPGKERELVAAISRGGGSTYYADSVKGRFTISRDNAKNTVYLQMNSLKPEETAVYYCAAQAFIVRPSYVPRHNYWGQGTQVTVSS	high polyreactivity
QVQLVESGGGLVQAGGSLRLTCAASGFTFFTYTMGWYRQPPGKERELVAAISRDGARTNYADSVKGRFTISRDNAKNTVYLQMNSLKPEDTAVYYCAAPTSHLYTEKYDYWGQGTQVTVSS	high polyreactivity
QVQLVESGGGLVQAGGSLRLTCAASGFTFGRYAMGWYRQAPGKERELVAAISTRGGSTYYADSVKGRFTISRDNAKNTVYLQMNSLKPEDTAVYYCAAGGYYVRYDYWGQGTQVTVSS	high polyreactivity
QVQLVESGGGLVQAGGSLRLTCAASGFTFSEYAMGWYRQAPGKEMEVVAAISWRGGSTYYADSVKGRFTISRDNAKNTVYLQMNSLKPEDTAVYYCAADSSGVYASWYKMDYWGKGTQVTVSS	high polyreactivity
QVQLVESGGGLVQAGGSLRLTCAASGFTFVINDMGWYRQAPGKERELVADITSGGDTYYADSVKGRFTISRDNAKNTVNFQMYSLKPEDTAVYYCAADIYPDWIYLLYGYWGQGTQVTVSS	low polyreactivity
QVQLVESGGGLVQAGGSLRLTCAASGFTIGYYAMGWYRQAPGKERELVAAISWSGGRTYYADSVKGRFTISRDNAKNTVYLQMNSLKPEDTAVYDCAADGQQTYSGYDYWGQGTQVTVSS	high polyreactivity
QVQLVESGGGLVQAGGSLRLTCAASGFTLGLNAMGWYRQAPGKEREVVAAIRRSAGSTYYADSVKGRFTISRDNAKNTVYLQMNSLKPEDTAVYYCAAGFLWAKYAYGHWGQGTQVTVSS	low polyreactivity
